Assay results as given in article PMC2892007, “The Terminal Immunoglobulin-Like Repeats of LigA and LigB of Leptospira Enhance Their Binding to Gelatin Binding Domain of Fibronectin and Host Cells” (PLoS ONE, 2010).

Columns and labels:
Details in all cases: both partners purified
[1] = target: T1, Gelatin-binding domain of human plasma fibronectin (human); test: SPR
T1 construct: also called GBD; source: bought: Sigma-Aldrich

[2] = target: T1, Gelatin-binding domain of human plasma …; test: SEC-MALS; mixtures of Lig protein and GBD on Superose 6, 20 mM HEPES, 150 mM NaCl, pH 7.5
[3] = target: T1, Gelatin-binding domain of human plasma …; test: ITC; GBD in the cell (1 ml), Lig protein in the syringe (250 µl), 25 injections of 10 µl, 25°C, Tris buffer with 100 µM CaCl2; independent binding model
[4] = target: T1, Gelatin-binding domain of human plasma …; test: ELISA
[5] = target: T1, Gelatin-binding domain of human plasma …; test: ITC; GBD in the cell (1 ml), Lig protein in the syringe (250 µl), 25 injections of 10 µl, 25°C, Tris buffer with 100 µM CaCl2; independent binding model; remark: listed apart in the source

Binder	koff [1]	kon [1]	stoichiometry N [2]	Kd [3]	dH [3]	stoichiometry N [3]	Kd [4]	Kd [5]	dH [5]	stoichiometry N [5]
LigAVar7'-8 (domain or fragment, biotin (in the ELISA)) LTVSNTNAKRGLGSTLKQGTVKVTASMGGIEDSVDFTVTQATLTSIEVSPTRASIAKGMTQKFTATGIFTDHSKKNITEQVTWKSSSKALSMLNAPGEEGTGKAIAVGKHYYYCNLRKTFRENRYYRYSRNSYFN	0.00501 s⁻¹	750 M⁻¹ s⁻¹	0.95 GBD: Lig	6750 ± 110 nM	-28.6 ± 5.14 kcal/mol	1.01 ± 0.04 Lig: GBD	–	–	–	–
LigAVar11 (domain or fragment, biotin (in the ELISA)) FQVTPAKVVSIEVIPNNISFAKGNSYQFKATGIYTDHSEADITEQVTWSSSNPKIASVENTFGSAGLVNTTNIGSTNITAKLSDTVSGASVLNVTPALLRY	0.00599 s⁻¹	1190 M⁻¹ s⁻¹	–	–	–	–	–	–	–	–
LigBCen7'-12 (domain or fragment, biotin (in the ELISA)) AEITNTSGSKGITNTLTPGSSEISAALGSIKSSKVILKVTPAQLISIAVTPINPSVAKGLIRQFKATGTYTDHSVQDVTALATWSSSNPRKAMVNNVTGSVTTVATGNTNIKATIDSISGSSVLNVTPALLTSIEITPTINSITHGLTKQFKATGIFSDKSTQNLTQLVTWISSDPSKIEIENTSGKKGIATASKLGSSNIKAVYKFIQSSPIPITVTDLKLKSITISPSSSSIAKGLTQQFKAIGTFIDGSEQEITNLVTWYSSKSDVAPINNAANEKGLATALSIGSSDIYAIYNSISSNKINFNVSAATLDSIKINPVNNNIAKGLTQQYTALGVYSDSTIQDISDSVTWSSSNSSSISISNSTETKGKATALQIGNSKITATYNSISENIDITVSAATLSSISISPINTNINTTVSKQFFAVGTYSDGTKADLTSSVTWSSSNQSQAKVSNASETKGLVTGIASGNPTIIATYGSVSGNTILTVNKTDTI	–	–	3.03 GBD: Lig	49 ± 2 nM	-95.7 ± 3.85 kcal/mol	0.33 ± 0.02 Lig: GBD	49 ± 7 nM	–	–	–
LigAVar13 (domain or fragment, biotin (in the ELISA)) ITISLSSISKTKGSTHQFKATGKFENGAEIDLTELVTWSSSNPTVVSISNVDDERGLATALSVGSSKISVDYNSISSSIDFEVTPEILASIKTEP	0.0053 s⁻¹	510 M⁻¹ s⁻¹	–	–	–	–	–	–	–	–
Histidine-tagged LigBCen2R (domain or fragment) TATYNSISENIDITVSAATLSSISISPINTNINATVSKQFFAVGTYSDGTKADLTSSVTWSSSNKSQAKVSNASKTKGLVTGIASGNSIITATYGSVSGNTILTVNKTDTI	0.00923 s⁻¹	4830 M⁻¹ s⁻¹	–	–	–	–	–	1880 ± 90 nM	-29.2 ± 3.58 kcal/mol	0.995 ± 0.01
LigAVar10 (domain or fragment, biotin (in the ELISA)) LSVTAAELIEIVLDPTSSHKAKGLTENFKATGVFTDNSTKDITDQVTWKSSKTAYAKISNATGSKRVVNAISKGTSHISATLGSISSANATFQVTPAKVV	0.00506 s⁻¹	1190 M⁻¹ s⁻¹	–	–	–	–	–	–	–	–
